Experimental data taken from US20240261333A1, “NOVEL TARGETS FOR ENHANCING ANTI-TUMOR IMMUNITY” (THE BROAD INSTITUTE, INC., priority 2021, published 2024).

Target: T1, B3GNT2 (Homo sapiens, UniProt Q9NY97)
T1 construct: The respective ORFs of candidate genes [CD274 (NM_014143), MCL1 (NM_021960), JUNB (NM_002229), and B3GNT2 (NM_006577)] were synthesized; expressed in transfected cells; host or cells: A375 melanoma cells (lentiviral ORF overexpression)
T1 sequence (Q9NY97 1-397): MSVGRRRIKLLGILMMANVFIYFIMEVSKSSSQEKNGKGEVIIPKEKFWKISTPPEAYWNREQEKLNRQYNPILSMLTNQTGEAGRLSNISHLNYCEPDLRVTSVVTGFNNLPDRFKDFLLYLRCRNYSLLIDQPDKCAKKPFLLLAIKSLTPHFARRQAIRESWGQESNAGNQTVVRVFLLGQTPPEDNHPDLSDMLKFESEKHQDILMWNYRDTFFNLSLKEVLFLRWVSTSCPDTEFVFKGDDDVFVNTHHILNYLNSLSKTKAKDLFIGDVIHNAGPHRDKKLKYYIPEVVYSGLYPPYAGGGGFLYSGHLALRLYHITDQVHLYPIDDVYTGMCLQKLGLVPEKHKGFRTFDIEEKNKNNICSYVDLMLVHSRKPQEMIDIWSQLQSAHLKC
Assay: Co-IP of FLAG-tagged B3GNT2 followed by mass spectrometry
Assay type: cell-based
Set-up: C-term IgG / C-term flag: unit not given here
Conditions: mass spectrometry count, unit not given; for C-term flag / N-term FLAG: Co-IP with FLAG antibody; for C-term flag / C-term IgG: C-terminally FLAG-tagged B3GNT2; for N-term FLAG / N-term IgG: N-terminally FLAG-tagged B3GNT2; for C-term IgG / N-term IgG: Co-IP with IgG control antibody
Method in brief: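 FLAG-tagged B3GNT2 immunoprecipitated from cell lysate (HEPES, 1% Triton X-100, 150 mM NaCl) with anti-FLAG versus […], overnight at 4° C, then captured on Protein A/G magnetic beads for 4 h. Two biological replicates per condition. Peptides fractionated and analyzed by nano-LC on an Orbitrap Elite in data-dependent mode.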

B1: RRP12 (protein)
chain: MGRSGKLPSGVSAKLKRWKKGHSSDSNPAICRHRQAARSRFFSRPSGRSDLTVDAVKLHNELQSGSLRLGKSEAPETPMEEEAELVLTEKSSGTFLSGLSDCTNVTFSKVQRFWESNSAAHKEICAVLAAVTEVIRSQGGKETETEYFAALVLSCLATLLRKQDLEAWGYPVTLQVYHGLLSFTVHPKPKIRKAAQHGVCSVLKGSEFMFEKAPAHHPAAISTAKFCIQEIEKSGGSKEATTTLHMLTLLKDLLPCFPEGLVKSCSETLLRVMTLSHVLVTACAMQAFHSLFHARPGLSTLSAELNAQIITALYDYVPSENDLQPLLAWLKVMEKAHINLVRLQWDLGLGHLPRFFGTAVTCLLSPHSQVLTAATQSLKEILKECVAPHMADIGSVTSSASGPAQSVAKMFRAVEEGLTYKFHAAWSSVLQLLCVFFEACGRQAHPVMRKCLQSLCDLRLSPHFPHTAALDQAVGAAVTSMGPEVVLQAVPLEIDGSEETLDFPRSWLLPVIRDHVQETRLGFFTTYFLPLANTLKSKAMDLAQAGSTVESKIYDTLQWQMWTLLPGFCTRPTDVAISFKGLARTLGMAISERPDLRVTVCQALRTLITKGCQAEADRAEVSRFAKNFLPILFNLYGQPVAAGDTPAPRRAVLETIRTYLTITDTQLVNSLLEKASEKVLDPASSDFTRLSVLDLVVALAPCADEAAISKLYSTIRPYLESKAHGVQKKAYRVLEEVCASPQGPGALFVQSHLEDLKKTLLDSLRSTSSPAKRPRLKCLLHIVRKLSAEHKEFITALIPEVILCTKEVSVGARKNAFALLVEMGHAFLRFGSNQEEALQCYLVLIYPGLVGAVTMVSCSILALTHLLFEFKGLMGTSTVEQLLENVCLLLASRTRDVVKSALGFIKVAVTVMDVAHLAKHVQLVMEAIGKLSDDMRRHFRMKLRNLFTKFIRKFGFELVKRLLPEEYHRVLVNIRKAEARAKRHRALSQAAVEEEEEEEEEEEPAQGKGDSIEEILADSEDEEDNEEEERSRGKEQRKLARQRSRAWLKEGGGDEPLNFLDPKVAQRVLATQPGPGRGRKKDHGFKVSADGRLIIREEADGNKMEEEEGAKGEDEEMADPMEDVIIRNKKHQKLKHQKEAEEEELEIPPQYQAGGSGIHRPVAKKAMPGAEYKAKKAKGDVKKKGRPDPYAYIPLNRSKLNRRKKMKLQGQFKGLVKAARRGSQVGHKNRRKDRRP
C-term flag: 2
N-term FLAG: 0
C-term IgG: 0
N-term IgG: 0

B2: ARF4 (protein)
chain: GLTISSLFSRLFGKKQMRILMVGLDAAGKTTILYKLKLGEIVTTIPTIGFNVETVEYKNICFTVWDVGGQDRIRPLWKHYFQNTQGLIFVVDSNDRERIQEVADELQKMLLVDELRDAVLLLFANKQDLPNAMAISEMTDKLGLQSLRNRTWYVQATCATQGTGLYEGLDWLSNELSKR
C-term flag: 4
N-term FLAG: 4
C-term IgG: 0
N-term IgG: 0

B3: CSRP1 (protein)
chain: MPNWGGGKKCGVCQKTVYFAEEVQCEGNSFHKSCFLCMVCKKNLDSTTVAVHGEEIYCKSCYGKKYGPKGYGYGQGAGTLSTDKGESLGIKHEEAPGHRPTTNPNASKFAQKIGGSERCPRCSQAVYAAEKVIGAGKSWHKACFRCAKCGKGLESTTLADKDGEIYCKGCYAKNFGPKGFGFGQGAGALVHSE
C-term flag: 3
N-term FLAG: 0
C-term IgG: 0
N-term IgG: 0

B4: CCT2 (protein)
chain: MDKILLSSGRDASLMVTNDGATILKNIGVDNPAAKVLVDMSRVQDDEVGDGTTSVTVLAAELLREAESLIAKKIHPQTIIAGWREATKAAREALLSSAVDHGSDEVKFRQDLMNIAGTTLSSKLLTHHKDHFTKLAVEAVLRLKGSGNLEAIHIIKKLGGSLADSYLDEGFLLDKKIGVNQPKRIENAKILIANTGMDTDKIKIFGSRVRVDSTAKVAEIEHAEKEKMKEKVERILKHGINCFINRQLIYNYPEQLFGAAGVMAIEHADFAGVERLALVTGGEIASTFDHPELVKLGSCKLIEEVMIGEDKLIHFSGVALGEACTIVLRGATQQILDEAERSLHDALCVLAQTVKDSRTVYGGGCSEMLMAHAVTQLANRTPGKEAVAMESYAKALRMLPTIIADNAGYDSADLVAQLRAAHSEGNTTAGLDMREGTIGDMAILGITESFQVKRQVLLSAAEAAEVILRVDNIIKAAPRKRVPDHHPC
C-term flag: 2
N-term FLAG: 0
C-term IgG: 0
N-term IgG: 0

B5: MARS (protein)
chain: MRLFVSDGVPGCLPVLAAAGRARGRAEVLISTVGPEDCVVPFLTRPKVPVLQLDSGNYLFSTSAICRYFFLLSGWEQDDLTNQWLEWEATELQPALSAALYYLVVQGKKGEDVLGSVRRALTHIDHSLSRQNCPFLAGETESLADIVLWGALYPLLQDPAYLPEELSALHSWFQTLSTQEPCQRAAETVLKQQGVLALRPYLQKQPQPSPAEGRAVTNEPEEEELATLSEEEIAMAVTAWEKGLESLPPLRPQQNPVLPVAGERNVLITSALPYVNNVPHLGNIIGCVLSADVFARYSRLRQWNTLYLCGTDEYGTATETKALEEGLTPQEICDKYHIIHADIYRWFNISFDIFGRTTTPQQTKITQDIFQQLLKRGFVLQDTVEQLRCEHCARFLADRFVEGVCPFCGYEEARGDQCDKCGKLINAVELKKPQCKVCRSCPVVQSSQHLFLDLPKLEKRLEEWLGRTLPGSDWTPNAQFITRSWLRDGLKPRCITRDLKWGTPVPLEGFEDKVFYVWFDATIGYLSITANYTDQWERWWKNPEQVDLYQFMAKDNVPFHSLVFPCSALGAEDNYTLVSHLIATEYLNYEDGKFSKSRGVGVFGDMAQDTGIPADIWRFYLLYIRPEGQDSAFSWTDLLLKNNSELLNNLGNFINRAGMFVSKFFGGYVPEMVLTPDDQRLLAHVTLELQHYHQLLEKVRIRDALRSILTISRHGNQYIQVNEPWKRIKGSEADRQRAGTVTGLAVNIAALLSVMLQPYMPTVSATIQAQLQLPPPACSILLTNFLCTLPAGHQIGTVSPLFQKLENDQIESLRQRFGGGQAKTSPKPAVVETVTTAKPQQIQALMDEVTKQGNIVRELKAQKADKNEVAAEVAKLLDLKKQLAVAEGKPPEAPKGKKKK
C-term flag: 0
N-term FLAG: 2
C-term IgG: 0
N-term IgG: 0

B6: SLC25A5 (protein)
chain: TDAAVSFAKDFLAGGVAAAISKTAVAPIERVKLLLQVQHASKQITADKQYKGIIDCVVRIPKEQGVLSFWRGNLANVIRYFPTQALNFAFKDKYKQIFLGGVDKRTQFWLYFAGNLASGGAAGATSLCFVYPLDFARTRLAADVGKAGAEREFRGLGDCLVKIYKSDGIKGLYQGFNVSVQGIIIYRAAYFGIYDTAKGMLPDPKNTHIVISWMIAQTVTAVAGLTSYPFDTVRRRMMMQSGRKGTDIMYTGTLDCWRKIARDEGGKAFFKGAWSNVLRGMGGAFVLVLYDEIKKYT
C-term flag: 30
N-term FLAG: 19
C-term IgG: 3
N-term IgG: 6

B7: CD70 (protein)
chain: MPEEGSGCSVRRRPYGCVLRAALVPLVAGLVICLVVCIQRFAQAQQQLPLESLGWDVAELQLNHTGPQQDPRLYWQGGPALGRSFLHGPELDKGQLRIHRDGIYMVHIQVTLAICSSTTASRHHPTTLAVGICSPASRSISLLRLSFHQGCTIASQRLTPLARGDTLCTNLTGTLLPSRNTDETFFGVQWVRP
C-term flag: 2
N-term FLAG: 0
C-term IgG: 0
N-term IgG: 0
